Here are results for one substance from publication doi:10.1101/2021.11.15.468501.

The target in the experiment is human MCU-EMRE fusion protein (hME) (human).

Turning to “MICU1EF (MICU1 with D231A, E242K, D421A, E432K), N-terminally MBP-tagged (from UniProt Q9BPX6 34-476) (natural protein)”, the time constant of the decay of hME Ca2+ current on perfusion of 10 μM MICU1EF stood at 44 s.
